Laboratory results reported in patent US20210163534A1 (KYUNGPOOK NATIONAL UNIVERSITY INDUSTRY ACADEMIC COOPERATION …, published 2021).
No end group written: not given here.

B1: PD-L1Pep-1 (peptide)
peptide: CLQKTPKQC
modifications: cysteine pairing not given here; also: N-terminal FITC, biotin or Flamma-675 depending on assay
notes: also called PBP
B2: PD-L1Pep-2 (peptide)
peptide: CVRARTR
modifications: also: N-terminal FITC, biotin or Flamma-675 depending on assay
notes: Synthetic peptide CVRARTR from a T7 phage library; also called PBP

Target: T1, PD-L1 expressed on MDA-MB231 cells (human, UniProt Q9NZQ7 19-290)
T1 construct: whole, on cells; Endogenous protein of a human cell line; also called MDA-MB 231 cells expressing PD-L1
T1 sequence (Q9NZQ7 19-290): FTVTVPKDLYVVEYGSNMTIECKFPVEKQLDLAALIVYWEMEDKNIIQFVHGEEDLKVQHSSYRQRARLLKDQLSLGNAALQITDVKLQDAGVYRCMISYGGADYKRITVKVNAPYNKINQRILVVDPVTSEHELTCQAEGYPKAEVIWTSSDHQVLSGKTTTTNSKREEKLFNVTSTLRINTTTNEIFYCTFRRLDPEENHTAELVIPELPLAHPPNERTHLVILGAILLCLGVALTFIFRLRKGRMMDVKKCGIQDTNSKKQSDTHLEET
Test: flow cytometry on MDA-MB231 cells after siRNA knockdown of PD-L1

Row | Binder | binding result
1 | B1 | binds
2 | B2 | binds
